Data from patent publication US20260317443 (published 2026).
Changes are numbered by the printed parent chain. Each block holds one binder with its values, some of them ahead of it.

Molecular target: human VWF (human)
Assay: ELISA

Chain of human VWF (human) (P04275 whole entry): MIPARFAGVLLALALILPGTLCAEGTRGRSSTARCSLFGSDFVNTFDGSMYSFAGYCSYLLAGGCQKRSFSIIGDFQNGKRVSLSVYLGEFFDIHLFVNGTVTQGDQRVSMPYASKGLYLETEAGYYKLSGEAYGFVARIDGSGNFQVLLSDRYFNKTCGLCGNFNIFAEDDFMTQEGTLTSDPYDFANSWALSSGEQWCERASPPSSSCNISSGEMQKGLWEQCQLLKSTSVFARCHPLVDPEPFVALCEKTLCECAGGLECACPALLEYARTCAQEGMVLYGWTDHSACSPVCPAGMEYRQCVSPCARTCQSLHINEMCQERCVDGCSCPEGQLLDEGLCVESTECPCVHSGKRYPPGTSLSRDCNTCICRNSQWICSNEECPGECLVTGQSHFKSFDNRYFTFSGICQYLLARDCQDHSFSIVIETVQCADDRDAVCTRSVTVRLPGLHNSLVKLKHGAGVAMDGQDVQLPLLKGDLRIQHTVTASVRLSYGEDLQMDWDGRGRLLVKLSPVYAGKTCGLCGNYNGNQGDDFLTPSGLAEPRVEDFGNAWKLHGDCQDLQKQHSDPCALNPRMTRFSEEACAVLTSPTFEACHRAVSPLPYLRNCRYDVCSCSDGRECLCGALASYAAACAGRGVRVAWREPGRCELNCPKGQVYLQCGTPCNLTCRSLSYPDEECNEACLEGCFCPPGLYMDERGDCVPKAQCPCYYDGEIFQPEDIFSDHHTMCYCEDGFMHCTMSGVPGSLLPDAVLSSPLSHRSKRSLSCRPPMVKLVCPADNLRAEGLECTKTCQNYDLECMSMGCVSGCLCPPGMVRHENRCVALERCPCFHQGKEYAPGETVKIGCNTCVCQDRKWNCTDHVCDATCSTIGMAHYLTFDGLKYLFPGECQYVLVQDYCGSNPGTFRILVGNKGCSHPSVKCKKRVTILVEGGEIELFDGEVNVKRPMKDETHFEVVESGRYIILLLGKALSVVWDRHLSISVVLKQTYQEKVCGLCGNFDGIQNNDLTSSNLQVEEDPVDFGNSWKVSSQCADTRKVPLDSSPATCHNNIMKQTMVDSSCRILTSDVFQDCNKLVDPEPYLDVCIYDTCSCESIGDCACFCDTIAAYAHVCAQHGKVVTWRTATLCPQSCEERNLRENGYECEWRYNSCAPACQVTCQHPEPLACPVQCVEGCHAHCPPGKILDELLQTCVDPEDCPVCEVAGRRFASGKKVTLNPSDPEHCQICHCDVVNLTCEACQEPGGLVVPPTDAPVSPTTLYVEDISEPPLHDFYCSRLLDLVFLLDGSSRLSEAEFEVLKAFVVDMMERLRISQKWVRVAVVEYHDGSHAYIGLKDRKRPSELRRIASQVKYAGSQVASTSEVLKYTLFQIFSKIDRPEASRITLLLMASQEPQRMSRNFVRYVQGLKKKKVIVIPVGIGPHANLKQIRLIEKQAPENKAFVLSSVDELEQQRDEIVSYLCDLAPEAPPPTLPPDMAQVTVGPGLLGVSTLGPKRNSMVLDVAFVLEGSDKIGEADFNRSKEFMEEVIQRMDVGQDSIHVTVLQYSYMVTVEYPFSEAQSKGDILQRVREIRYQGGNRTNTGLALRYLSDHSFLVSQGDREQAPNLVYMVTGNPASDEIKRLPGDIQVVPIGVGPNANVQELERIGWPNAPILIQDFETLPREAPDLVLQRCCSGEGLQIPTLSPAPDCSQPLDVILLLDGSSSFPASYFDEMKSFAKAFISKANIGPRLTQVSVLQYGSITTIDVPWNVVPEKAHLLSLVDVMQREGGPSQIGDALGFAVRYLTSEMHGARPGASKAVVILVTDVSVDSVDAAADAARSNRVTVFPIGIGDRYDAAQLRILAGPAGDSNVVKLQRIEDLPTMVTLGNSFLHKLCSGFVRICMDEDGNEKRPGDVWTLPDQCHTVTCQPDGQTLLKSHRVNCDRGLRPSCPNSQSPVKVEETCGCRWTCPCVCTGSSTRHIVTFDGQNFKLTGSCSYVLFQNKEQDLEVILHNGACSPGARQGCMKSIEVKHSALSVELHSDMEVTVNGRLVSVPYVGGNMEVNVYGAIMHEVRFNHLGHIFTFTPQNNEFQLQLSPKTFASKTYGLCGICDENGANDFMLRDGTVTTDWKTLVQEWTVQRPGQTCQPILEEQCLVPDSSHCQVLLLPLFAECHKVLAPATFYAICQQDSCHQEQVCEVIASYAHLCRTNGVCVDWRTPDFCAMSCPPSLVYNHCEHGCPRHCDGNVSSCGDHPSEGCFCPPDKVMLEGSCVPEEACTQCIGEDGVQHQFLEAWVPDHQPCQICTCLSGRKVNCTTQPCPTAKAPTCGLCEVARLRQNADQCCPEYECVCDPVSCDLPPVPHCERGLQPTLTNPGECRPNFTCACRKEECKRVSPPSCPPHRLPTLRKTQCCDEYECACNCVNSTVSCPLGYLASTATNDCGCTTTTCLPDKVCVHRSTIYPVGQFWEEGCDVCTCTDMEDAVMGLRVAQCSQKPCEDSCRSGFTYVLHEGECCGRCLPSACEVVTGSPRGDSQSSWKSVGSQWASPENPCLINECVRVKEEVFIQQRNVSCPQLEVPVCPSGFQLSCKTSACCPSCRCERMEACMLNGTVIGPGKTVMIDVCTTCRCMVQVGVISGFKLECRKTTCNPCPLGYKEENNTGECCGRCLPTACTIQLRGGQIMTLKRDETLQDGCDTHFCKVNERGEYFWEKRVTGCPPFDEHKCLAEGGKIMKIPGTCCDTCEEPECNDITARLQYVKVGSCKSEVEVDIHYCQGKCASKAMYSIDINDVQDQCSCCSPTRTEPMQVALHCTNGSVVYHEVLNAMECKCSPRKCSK

B2: 25B05_H3-L3 (antibody, V domains shown)
VH: EVQLVQSGAEVKKPGASVKVSCKASGYTFTDYFMNWVRQAPGQRLEWMGVINPHNGGTSYSQKFQGRVTITVDKSSSTAYMELSSLRSEDTAVYYCARRPLGSDYWGQGTTVTVSS
VL: DIQMTQSPSSVSASVGDRVTITCKASQNVGTAVAWYQQKPGKAPKLLIYSASSRYTEVPDRFSGSGSGTDFTLTISSLQPEDFATYYCQQYSSYPLTFGQGTKLEIK
EC50: 0.0434 µg/mL

B4: 25B05_H1-L2 (antibody, V domains shown)
VH: B2 VH with E1Q, V72R, K74T, S76A
VL: B2 VL with Q3V, E57G, D60S
EC50: 0.0334 µg/mL

B5: 25B05_H1-L1 (antibody, V domains shown)
VH: B2 VH with E1Q, V72R, K74T, S76A
VL: B2 VL with E57G, D60S
EC50: 0.0312 µg/mL

B6: 25B05_H4-L4 (antibody, V domains shown)
VH: B2 VH with I70L
VL: B2 VL with Q3V
EC50: 0.0264 µg/mL

B7: 33D03_H5-L4 (antibody, V domains shown)
VH: EVQLVQSGAEVKKPGASVKVSCKASGYTFTDYYLNWVRQAPGQRLEWMGIINPYNGGTNYNQRFKGRVTLTVDKSSSTAYMELSSLRSEDTAVYYCASEGLRTWFTYWGQGTLVTVSS
VL: DIVMTQSPDSLAVSLGERATISCKSSQSLSNSGNQKIYLAWYQQKPGQPPKLLIYGASSRESGVPDRFSGSGSEIDFTLTISSLQAEDVAVYYCQNDHSHPFTFGQGTKLEIK
EC50: 0.0365 µg/mL

B12: 33D03_H3-L4 (antibody, V domains shown)
VH: B7 VH with E1Q, N61S, R63K, K65Q, L70I
VL: B7 VL
EC50: 0.0434 µg/mL

B15: 33D03_H1-L2 (antibody, V domains shown)
VH: B7 VH with E1Q, N61S, R63K, K65Q, L70I, V72R, K74T, S76A
VL: B7 VL with E74G, I75T
EC50: 0.0453 µg/mL

Results, then the binder that gave them:

EC50: 0.0385 µg/mL
B1: 25B05_H4-L1 (antibody, V domains shown)
VH: B2 VH with I70L
VL: B2 VL with E57G, D60S

EC50: 0.0344 µg/mL
B3: 25B05_H1-L4 (antibody, V domains shown)
VH: B2 VH with E1Q, V72R, K74T, S76A
VL: B2 VL with Q3V

EC50: 0.0437 µg/mL
B8: 33D03_H1-L1 (antibody, V domains shown)
VH: B7 VH with E1Q, N61S, R63K, K65Q, L70I, V72R, K74T, S76A
VL: B7 VL with S22N, E74G, I75T

EC50: 0.0447 µg/mL
B9: 33D03_H3-L1 (antibody, V domains shown)
VH: B7 VH with E1Q, N61S, R63K, K65Q, L70I
VL: B7 VL with S22N, E74G, I75T

EC50: 0.0294 µg/mL
B10: 33D03_H5-L2 (antibody, V domains shown)
VH: B7 VH
VL: B7 VL with E74G, I75T

EC50: 0.0297 µg/mL
B11: 33D03_H5-L1 (antibody, V domains shown)
VH: B7 VH
VL: B7 VL with S22N, E74G, I75T

EC50: 0.0335 µg/mL
B13: 33D03_H5-L3 (antibody, V domains shown)
VH: B7 VH
VL: B7 VL with S22N

EC50: 0.054 µg/mL
B14: 33D03_H1-L4 (antibody, V domains shown)
VH: B7 VH with E1Q, N61S, R63K, K65Q, L70I, V72R, K74T, S76A
VL: B7 VL
